Experiment [1] has as its target spike glycoprotein of wild type SARS-CoV-2 virus (SARS-CoV-2) (UniProt P0DTC2). The experiment can be described thus: cell-based or functional assay.
For experiment [2], the target named is RBD-VLP (SARS-CoV-2) (UniProt P0DTC2).

By IC50 is commonly meant the concentration at which inhibition is half-maximal.

As for CR3022 (antibody), the Neutralization by PRNT EC50 in experiment [1] is 42 nM.

VHH72-Fc showed an IC50 in experiment [2] of 2 nM.

Values taken from patent US20230279079A1.
